The text below walks through data of patent US20250002610A1 (Genmab, published 2025).

Experiment [1] addresses T1, FcγRIIb (CD32B/Fcgr2b Protein, Human, Recombinant (His & AVI Tag), Biotinylated) (human, UniProt P31994 43-217, limits assumed, biotinylated).
T1 construct: Bought reagent; not shown: His & AVI tag
T1 sequence (looked up): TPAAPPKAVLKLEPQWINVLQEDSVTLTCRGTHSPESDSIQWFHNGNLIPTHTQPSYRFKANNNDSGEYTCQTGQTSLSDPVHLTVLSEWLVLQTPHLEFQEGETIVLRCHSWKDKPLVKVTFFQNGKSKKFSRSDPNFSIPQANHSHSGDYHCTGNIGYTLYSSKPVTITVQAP
The experiment is described as follows: SPR (Biacore 8K), His-tagged FcγRIIb captured on an anti-His chip, antibody as analyte, endpoint response against concentration. As to the method:
Binding of BisG1-FAPα-FERL/DR4-FERR to immobilized human His-tagged FcγRs and FcRn was analyzed by SPR using a Biacore 8K SPR system (Cytiva). To this end, anti-His antibodies were covalently immobilized on the surface of Biacore Series S Sensor Chip CM5 (Cytiva, Cat. #29104988) using the Amine Coupling Kit (Cytiva, Cat. #BR100050) and a His Capture Kit (Cytiva, Cat. #29234602) according to the manufacturer's instructions. To assess antibody binding to immobilized human FcγRs, aliquots of the recombinant His-tagged FcγR proteins (Table 24) were diluted in HBS EP+Buffer pH 7.4 (Cytiva, Cat. #BR100669) and used to capture the FcγR proteins on the surface of the anti-His antibody-coated sensors using a flow rate of 10 μL/min and a contact time of 60 s. Captured levels ranged from 434 to 592 RU. After three start-up cycles of HBS-EP+Buffer, concentration ranges of BisG1-FAPα-FERL/DR4-FERR or IgG1-b12 antibodies (Table 25) were injected to generate binding curves on FcγR-captured sensors (active surface). For each antibody sample, a parallel flow cell without captured FcγRs was included (reference surface), which was used for RU background correction.
All sensorgrams were subtracted by the signal of the third start-up cycle with buffer only (mock analyte). […]
(SPR reads the build-up and loss of mass on a sensor chip optically.)

For experiment [2], the target named is T2, His-tagged recombinant Human FAPα (Acro Biosystems, Cat #FAP-H5244-100ug) (human, UniProt Q12884 26-760).
T2 construct: Bought reagent; not shown: His tag
T2 sequence (looked up): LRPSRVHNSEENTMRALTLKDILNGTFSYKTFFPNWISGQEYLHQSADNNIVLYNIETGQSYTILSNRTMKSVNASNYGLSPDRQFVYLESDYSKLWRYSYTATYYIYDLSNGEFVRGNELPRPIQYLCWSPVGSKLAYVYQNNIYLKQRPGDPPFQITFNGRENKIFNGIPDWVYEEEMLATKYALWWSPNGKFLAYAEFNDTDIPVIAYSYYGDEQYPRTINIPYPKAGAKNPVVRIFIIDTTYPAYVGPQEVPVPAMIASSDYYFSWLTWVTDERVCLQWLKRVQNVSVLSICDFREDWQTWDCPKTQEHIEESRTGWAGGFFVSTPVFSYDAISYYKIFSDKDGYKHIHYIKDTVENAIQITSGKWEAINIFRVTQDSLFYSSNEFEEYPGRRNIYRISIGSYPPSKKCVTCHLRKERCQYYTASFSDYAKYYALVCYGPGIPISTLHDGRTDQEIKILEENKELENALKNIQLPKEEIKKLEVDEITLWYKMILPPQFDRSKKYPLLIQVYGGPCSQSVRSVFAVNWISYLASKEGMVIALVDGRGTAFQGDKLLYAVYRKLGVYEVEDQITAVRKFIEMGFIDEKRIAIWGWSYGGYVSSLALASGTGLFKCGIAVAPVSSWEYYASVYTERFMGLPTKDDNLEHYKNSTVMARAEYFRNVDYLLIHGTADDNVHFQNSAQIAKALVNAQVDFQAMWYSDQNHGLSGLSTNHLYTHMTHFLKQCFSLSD
In words: BLI, antigen immobilized on AR2G sensors. The procedure: Experiments were carried out while shaking at 1,000 RPM at 30° C. Amine Reactive 2nd Generation (AR2G) biosensors (Sartorius, Cat #18-5092) were activated by reaction with 20 mM EDC (N-(3-Dimethylaminopropyl)-N′-ethylcarbodiimide hydrochloride) (Sigma-Aldrich, Cat #03449) and 10 mM s-NHS (N-hydroxysulfosuccinimide sodium salt) (Sigma-Aldrich, Cat #56485) for 300 s. The activated AR2G sensors were loaded with 2.5 μg/mL His-tagged recombinant Human FAPα (Acro Biosystems, Cat #FAP-H5244-100ug) in 10 mM Sodium Acetate pH 5.0 (Sartorius, Cat #18-1069) or 2.5 μg/mL His-tagged recombinant Cynomolgus FAPα (Acro Biosystems, Cat #FAP-C52H3-100ug) in 10 mM Sodium Acetate pH 5.0 for 600 s and quenched with 1 M ethanolamine pH 8.5 (Sartorius Cat #18-1071) for 300 s. After a baseline measurement in Sample Diluent (1000 s; Sartorius, Cat #18-1104), the association (100 s) and dissociation (4,000 s) of functionally monovalent antibody was determined using a concentration range of 0.78-800 nM with two-fold dilution steps in Sample Diluent. The molecular mass of the antibodies used for the calculations was calculated from the sequences.
The Y-axis was aligned to the last 10 s of the baseline; Interstep Correction alignment to dissociation and Savitzky-Golay filtering were applied. Data traces with a response <0.05 nm were excluded from analysis. […]
Background: In BLI a coated tip is dipped into the sample, and binding shifts an interference pattern.

B1: IgG1-b12 (antibody)
heavy: not shown
light: EIVLTQSPGTLSLSPGERATFSCRSSHSIRSRRVAWYQHKPGQAPRLVIHGVSNRASGISDRFSGSGSGTDFTLTITRVEPEDFALYYCQVYGASSYTFGQGTKLERKRTVAAPSVFIFPPSDEQLKSGTASVVCLLNNFYPREAKVQWKVDNALQSGNSQESVTEQDSKDSTYSLSSTLTLSKADYEKHKVYACEVTHQGLSSPVTKSFNRGEC
notes: HIV gp120 antibody b12 with wild-type IgG1 Fc; also called IgG-b12
B1: the binding result in experiment [1] is recorded as “binds”.

B2: BisG1-b12-FERL/DR4-FERR (bispecific antibody, human IgG1, kappa, lambda)
heavy 1: QVQLVQSGAEVKKPGASVKVSCQASGYRFSNFVIHWVRQAPGQRFEWMGWINPYNGNKEFSAKFQDRVTFTADTSANTAYMELRSLRSADTAVYYCARVGPYSWDDSPQDNYYMDVWGKGTTVIVSSASTKGPSVFPLAPSSKSTSGGTAALGCLVKDYFPEPVTVSWNSGALTSGVHTFPAVLQSSGLYSLSSVVTVPSSSLGTQTYICNVNHKPSNTKVDKRVEPKSCDKTHTCPPCPAPEFERGPSVFLFPPKPKDTLMISRTPEVTCVVVDVSHEDPEVKFNWYVDGVEVHNAKTKPREEQYNSTYRVVSVLTVLHQDWLNGKEYKCKVSNKALPAPIEKTISKAKGQPREPQVYTLPPSREEMTKNQVSLTCLVKGFYPSDIAVEWESNGQPENNYKTTPPVLDSDGSFLLYSKLTVDKSRWQQGNVFSCSVMHEALHNHYTQKSLSLSPG
light 1: B1 light
heavy 2: QVQLQESGPGLVKPSGTLSLTCAVSGGSISSYSWWSWIRQPPGKGLEWIGELYHSGSTNYNPSLKSRVTISVDKSKNQFSLKLRSVTAADTAVYYCVRGVATIDYWGQGTLVTVSSASTKGPSVFPLAPSSKSTSGGTAALGCLVKDYFPEPVTVSWNSGALTSGVHTFPAVLQSSGLYSLSSVVTVPSSSLGTQTYICNVNHKPSNTKVDKRVEPKSCDKTHTCPPCPAPEFERGPSVFLFPPKPKDTLMISRTPEVTCVVVDVSHEDPEVKFNWYVDGVEVHNAKTKPREEQYNSTYRVVSVLTVLHQDWLNGKEYKCKVSNKALPAPIEKTISKAKGQPREPQVYTLPPSREEMTKNQVSLTCLVKGFYPSDIAVEWESNGQPENNYKTTPPVLDSDGSFFLYSRLTVDKSRWQQGNVFSCSVMHEALHNHYTQKSLSLSPG
light 2: QSALTQPPSASGSPGQSVTISCTGTSSDVGGYNFVSWYQQDPGKAPKLLIYEVTKRPSGVPDRFSGSKSGNTASLTVSGLQAEDEADYYCSSYAGSNNVMFGGGTKLTVLGQPKAAPSVTLFPPSSEELQANKATLVCLISDFYPGAVTVAWKADSSPVKAGVETTTPSKQSNNKYAASSYLSLTPEQWKSHRSYSCQVTHEGSTVEKTVAPTECS
notes: Fab-arm exchange of IgG1-b12-FERL and IgG1-DR4-FERR; also called bsIgG1-ctrl-FERLxDR4-FERR
With B2, in experiment [2], the binding result is reported as “no binding (tested: 800 nM)”.
